One experiment addresses T1, Kap114p (Q597A) (S. cerevisiae, UniProt P53067 1-1004, Q597A).
T1 construct: Kap114p, S. cerevisiae, full length with Q597A; also called GST-Kap114p (Q597); source: E. coli Rosetta, purified (GST resin, MonoQ, Superdex 200)
T1 sequence (looked up): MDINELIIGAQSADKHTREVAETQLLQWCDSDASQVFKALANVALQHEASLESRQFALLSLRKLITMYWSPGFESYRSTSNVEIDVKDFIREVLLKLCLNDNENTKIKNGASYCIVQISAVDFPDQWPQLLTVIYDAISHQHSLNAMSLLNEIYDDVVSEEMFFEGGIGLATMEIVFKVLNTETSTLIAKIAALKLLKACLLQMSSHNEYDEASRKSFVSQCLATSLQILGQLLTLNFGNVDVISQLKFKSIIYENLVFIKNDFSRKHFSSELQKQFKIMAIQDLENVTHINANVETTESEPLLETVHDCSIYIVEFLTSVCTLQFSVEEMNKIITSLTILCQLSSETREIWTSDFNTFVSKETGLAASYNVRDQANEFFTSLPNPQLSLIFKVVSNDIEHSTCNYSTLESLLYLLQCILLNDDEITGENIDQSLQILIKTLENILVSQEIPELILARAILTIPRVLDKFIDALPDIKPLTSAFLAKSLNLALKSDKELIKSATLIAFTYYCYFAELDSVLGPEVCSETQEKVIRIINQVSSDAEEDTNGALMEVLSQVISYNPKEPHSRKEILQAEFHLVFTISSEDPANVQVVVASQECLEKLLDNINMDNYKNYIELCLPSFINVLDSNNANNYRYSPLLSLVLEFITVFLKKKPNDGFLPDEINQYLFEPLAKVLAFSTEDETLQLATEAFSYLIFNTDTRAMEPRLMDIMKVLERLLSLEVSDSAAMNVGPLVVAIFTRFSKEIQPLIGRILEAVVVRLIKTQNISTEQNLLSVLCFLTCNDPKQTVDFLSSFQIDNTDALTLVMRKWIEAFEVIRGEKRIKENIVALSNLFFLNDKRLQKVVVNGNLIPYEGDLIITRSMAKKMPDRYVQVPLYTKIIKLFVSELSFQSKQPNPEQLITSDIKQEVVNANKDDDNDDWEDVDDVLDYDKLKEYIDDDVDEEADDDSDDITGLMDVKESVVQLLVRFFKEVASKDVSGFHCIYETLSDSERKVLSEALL
The experiment in a line: ITC; MicroCal iTC200, 25 °C, 20 mM HEPES pH 7.4, 150 mM NaCl; high concentration: 50 µM wild type or mutant Kap114p in the sample cell, 500 µM wild type or mutant yTBPC in the syringe; triplicate. Conditions: both partners purified. (In general: Isothermal titration calorimetry measures the heat released or taken up as one component is titrated into another.)

Another experiment deals with T2, Kap114pΔ(Y939) (S. cerevisiae, UniProt P53067 1-1004, ΔY939).
T2 construct: Kap114p, S. cerevisiae, full length with residue Y939 deleted; also called GST-Kap114p (Δ939); source: E. coli Rosetta, purified (GST resin, MonoQ, Superdex 200)
T2 sequence (looked up): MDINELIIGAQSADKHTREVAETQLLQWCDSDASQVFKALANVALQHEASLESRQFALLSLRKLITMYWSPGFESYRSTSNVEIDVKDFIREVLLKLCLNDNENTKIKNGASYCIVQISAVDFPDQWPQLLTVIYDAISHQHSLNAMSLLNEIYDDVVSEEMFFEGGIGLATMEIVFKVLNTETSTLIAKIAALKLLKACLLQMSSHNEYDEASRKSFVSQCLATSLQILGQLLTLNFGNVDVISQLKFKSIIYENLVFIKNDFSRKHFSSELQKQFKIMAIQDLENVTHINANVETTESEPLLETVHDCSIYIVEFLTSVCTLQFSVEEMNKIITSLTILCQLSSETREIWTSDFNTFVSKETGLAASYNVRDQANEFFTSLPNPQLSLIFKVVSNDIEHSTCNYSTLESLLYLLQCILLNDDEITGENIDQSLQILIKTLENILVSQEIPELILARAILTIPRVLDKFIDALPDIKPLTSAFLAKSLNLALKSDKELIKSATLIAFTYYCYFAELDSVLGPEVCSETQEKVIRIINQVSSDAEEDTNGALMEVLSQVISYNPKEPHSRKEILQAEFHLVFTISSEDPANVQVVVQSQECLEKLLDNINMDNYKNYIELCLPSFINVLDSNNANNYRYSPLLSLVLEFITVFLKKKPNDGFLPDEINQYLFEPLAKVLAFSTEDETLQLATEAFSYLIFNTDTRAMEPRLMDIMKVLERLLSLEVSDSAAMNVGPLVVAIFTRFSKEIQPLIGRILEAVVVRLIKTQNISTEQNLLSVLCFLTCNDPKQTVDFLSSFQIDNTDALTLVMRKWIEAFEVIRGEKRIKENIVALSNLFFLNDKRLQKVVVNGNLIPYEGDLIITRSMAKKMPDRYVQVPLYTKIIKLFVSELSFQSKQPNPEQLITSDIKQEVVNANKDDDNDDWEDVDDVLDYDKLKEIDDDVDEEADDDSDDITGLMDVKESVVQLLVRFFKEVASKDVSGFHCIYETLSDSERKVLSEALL
Described as above. The settings on record: both partners purified.

B1: yTBP^C wild type (core domain of yeast TATA-box binding protein, a.a. 61-240) (domain or fragment, S. cerevisiae, UniProt P13393 61-240, looked up)
chain: SGIVPTLQNIVATVTLGCRLDLKTVALHARNAEYNPKRFAAVIMRIREPKTTALIFASGKMVVTGAKSEDDSKLASRKYARIIQKIGFAAKFTDFKIQNIVGSCDVKFPIRLEGLAFSHGTFSSYEPELFPGLIYRMVKPKIVLLIFVSGKIVLTGAKQREEIYQAFEAIYPVLSEFRKM
notes: modified pET28a, 6xHis tag followed by a PreScission site; also called yTBPC WT; His-yTBP (61-240); source: E. coli Rosetta, purified (Ni-NTA, HiTrap SP, Superdex 75); not shown: His6, N-terminal, cleaved
As for B1, the dissociation constant Kd (as a rule, the free concentration of one partner at which half of the binding sites on the other are occupied at equilibrium, for simple one-to-one binding) with Kap114p (Q597A) is 7.4 nM; with Kap114pΔ(Y939), 37.1 nM.

For the origin of these results see paper PMC10491584, “Structural convergence endows nuclear transport receptor Kap114p with a transcriptional repressor function toward TATA-binding protein” (Nature Communications, 2023).
